Data on two molecules can be found in patent US11673947B2, “Target tissue-specific antigen-binding molecule” (Chugai Seiyaku Kabushiki Kaisha, priority 2012, dated 2023).

For this assay, the system named is CHO/hIL6R (CHO cells expressing human IL-6 receptor). The experiment in a line: ADCC (chrome release) with NK92-CD16(V) as effector cells against CHO/hIL6R cells. The note with it: in the presence of ATP, various antibody concentrations; variants with increased effector activity. The format is cell-based. As to the method:
The obtained antibodies 6RAD2C1-4_030 and 6RAD2C1-4_011 were assessed by the method described below to test whether ADCC activity against hIL-6R-expressing cells is mediated via hIL-6R binding of the antibodies in the presence of adenosine triphosphate (ATP). […] At various antibody concentrations in the presence or absence of ATP, 6RAD2C1-4_030, 6RAD2C1-4_011, and MRA were assessed for the ADCC activity to hIL-6R-expressing cells according to the method described in Reference Example 3.
Antibodies that bind to antigens in an ATP-dependent manner were assessed for their ADCC activity against antigen-expressing cells at various antibody concentrations according to the method described below. […]
ADCC activity was assessed based on the specific chrome release rate determined by chrome release assay. […] 100 μl of culture supernatant from each well of the plate was measured for radioactivity using a gamma counter. The specific chrome release rate was determined based on the equation described in Reference Example 1.

B1: 6RAD2C1-4_030: antibody that binds to hIL-6R in the presence of ATP; variable regions SEQ ID NOs: 119 and 120 (antibody, listed as Homo sapiens, V domains shown)
VH: EVQLVESGGDLVKPGGGLRLSCAASGFTFSSYTMNWVRQAPGKGLEWVSSISSRSGYAYYADSVKGRFTISRDNAKNSLYLQMNSLRAEDTAVYYCARFGALNTLNWVFDYWGQGTLVTVSS
VL: QSALTQPPSASGSPGQTVTISCTGTSTDVGDYNYVSWYQQHPGKAPKLMIYQVSKKPSGVPDRFSGSKSGNTASLTVSGLQAEDEADYFCSTRTANAGVLFGGGTKLTVL
With B1, the “ADCC activity against hIL-6R-expressing cells” value is reported as “antibody concentration-dependent ADCC activity”.

B2: 6RAD2C1-4_011: antibody that binds to hIL-6R in the presence of ATP; variable regions SEQ ID NOs: 82 and 83 (antibody, listed as Homo sapiens, V domains shown)
VH: EVQLVESGGDLVKPGGGLRLSCAASGFTFSGHTMNWVRQAPGKGLEWVSSISSRSSYIYYADSVKGRFTISRDNAKNSLYLQMNSLRAEDTAVYYCARYGALGQMNWVFDYWGQGTLVTVSS
VL: QSALTQPPSASGSPGQTVTISCTGTSTDVGDYNYVSWYQQHPGKAPKLMIYSVSKRPSGVPDRFSGSKSGNTASLTVSGLQAEDEADYFCSSRSSSMNVLFGGGTKLTVL
With B2, the “ADCC activity against hIL-6R-expressing cells” value is recorded as “antibody concentration-dependent ADCC activity”.
